Ends that are not written are not given here.
Biological target: the molecule itself
Assay: SEC-SAXS

GIGDPVTCLKSGAICHPVFCPRRYKQIGTCGLPGTKCCKKP (natural protein, UniProt O15263 24-64, looked up, ends and bridges not checked; cysteine pairing not given here) [Human β-defensin 2 (HBD-2)] was tested, and the “monomer/dimer ratio (dimer part of 70:30)” value was 30.
